{
  "source": "patent US20090104207A1",
  "about": "(published 2009)",
  "binders": {"B1": {"name": "5D2 (antibody, V domains shown)", "VH": "QVQLVESGGGVVQPGRSLRLSCVASGFTFSHYAMHWIRQAPGKGLEWVAVVSYDGSNKFYVDSVKGRFTISRDNSKNTVYLQMNSLRAVDTAVYYCARDPGVVTGSWSDSDGPPIHWGQGTLVTVSS", "VL": "DIVVTQSPDSLAVSLGERATITCKSSQSVFYSSNNKNYLGWYQQKPGQPPKLLIYWASTRASGVPDRFSGSGSGTDFTLTISSLQAEDVAVYYCQQYYTSWAFGQGTKVEIKR", "notes": "also called 5D2H9; IGH 534"}},
  "key": {"IGP 2138": {"molecular_target": "T1, IGP 2138 (hepatitis C virus)", "T1 construct": "also called WDMMMNW", "test": "ELISA, biotinylated peptide on streptavidin plates (FIG. 9)"}, "IGP 2242": {"molecular_target": "IGP 2242 (hepatitis C virus)", "test": "ELISA, biotinylated peptide on streptavidin plates (FIG. 9)"}, "IGP 2241": {"molecular_target": "IGP 2241 (hepatitis C virus)", "test": "ELISA, biotinylated peptide on streptavidin plates (FIG. 9)"}, "IGP 2254": {"molecular_target": "T2, IGP 2254 (hepatitis C virus, SMILES …)", "T2 peptide": "Biotin-GGITGHRMAWDMMMNWS-NH2", "test": "BIAcore, antibody immobilized, peptide in solution"}, "IGP 3472": {"molecular_target": "IGP 3472 (hepatitis C virus)", "test": "ELISA: biotinylated peptide on streptavidin-coated plate, serial dilution of 5D2; EC50 from Prism, shown as difference in log EC50 versus IGP 2254"}, "IGP 2137": {"molecular_target": "T3, IGP 2137 (hepatitis C virus)", "T3 construct": "also called RMAWDM", "test": "peptide ELISA (fine-mapping)"}, "[1]": {"molecular_target": "HCV E1 envelope glycoprotein, genotype 4a isolate UKN4a, on retroviral pseudoparticles (hepatitis C virus genotype 4a)", "test": "cell-based or functional assay"}, "[2]": {"molecular_target": "HCV E1 envelope glycoprotein, genotype 2a isolate JFH1, on retroviral pseudoparticles (hepatitis C virus genotype 2a, UniProt Q99IB8 192-383)", "sequence (Q99IB8 192-383 limits assumed)": "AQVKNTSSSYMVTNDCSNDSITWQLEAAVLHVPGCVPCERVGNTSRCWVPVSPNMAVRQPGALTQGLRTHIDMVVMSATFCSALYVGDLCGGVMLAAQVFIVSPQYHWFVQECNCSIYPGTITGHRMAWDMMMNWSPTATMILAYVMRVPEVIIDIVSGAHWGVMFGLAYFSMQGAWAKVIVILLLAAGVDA", "test": "cell-based or functional assay"}, "[3]": {"molecular_target": "HCV E1 envelope glycoprotein, genotype 1a strain H77, on retroviral pseudoparticles (hepatitis C virus genotype 1a strain H77, UniProt P27958 192-383)", "sequence (P27958 192-383 limits assumed)": "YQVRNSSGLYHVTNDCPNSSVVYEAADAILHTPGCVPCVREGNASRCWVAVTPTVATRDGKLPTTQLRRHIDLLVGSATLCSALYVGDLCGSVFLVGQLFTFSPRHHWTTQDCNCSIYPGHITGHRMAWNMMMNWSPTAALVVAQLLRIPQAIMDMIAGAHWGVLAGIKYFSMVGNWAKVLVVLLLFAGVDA", "test": "cell-based or functional assay"}},
  "note": "*: point of attachment. Biotin = O=C1N[C@H]2[C@H](CS[C@H]2CCCCC(=O)*)N1",
  "data": [
    {"binder": "B1", "values": [
      {"measurement": "binding result", "setting": "IGP 2138", "value": "no binding"},
      {"measurement": "binding result", "setting": "IGP 2242", "value": "binds"},
      {"measurement": "binding result", "setting": "IGP 2241", "value": "no binding"},
      {"measurement": "Kd", "setting": "IGP 2254", "value": 0.06, "unit": "nM"},
      {"measurement": "koff", "setting": "IGP 2254", "value": "9.46e-05", "unit": "s⁻¹"},
      {"measurement": "kon", "setting": "IGP 2254", "value": "1.71e+06", "unit": "M⁻¹ s⁻¹"},
      {"measurement": "binding result", "setting": "IGP 3472", "value": "no binding"},
      {"measurement": "binding result", "setting": "IGP 2137", "value": "no binding"},
      {"measurement": "lowest concentration of antibody exhibiting at least 50% neutralization of HCVpp versus control", "setting": "[1]", "value": "> 25", "unit": "µg/mL"},
      {"measurement": "lowest concentration of antibody exhibiting at least 50% neutralization of HCVpp versus control", "setting": "[2]", "value": 6.2, "unit": "µg/mL"},
      {"measurement": "lowest concentration of antibody exhibiting at least 50% neutralization of HCVpp versus control", "setting": "[3]", "value": 25, "unit": "µg/mL"}
    ]}
  ]
}
